According to patent US20240417458A1 (DISC MEDICINE, published 2024):
Where “and” joins values, the source holds several entries; their conditions need not be identical. Equal entries are not always repeated.

How the values were obtained:
soluble human RGMa [1] = biological target: T1, soluble human RGMa (human, UniProt Q96B86 48-422, limits assumed); assay: SPR (BIAcore);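 also: Anti-HJV antibodies tested for binding against soluble human RGMa by surface plasmon resonance on a BIAcore instrument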
T1 construct: Soluble antigen in BIAcore; also called huRGMa; repulsive guidance molecule A
T1 sequence (looked up): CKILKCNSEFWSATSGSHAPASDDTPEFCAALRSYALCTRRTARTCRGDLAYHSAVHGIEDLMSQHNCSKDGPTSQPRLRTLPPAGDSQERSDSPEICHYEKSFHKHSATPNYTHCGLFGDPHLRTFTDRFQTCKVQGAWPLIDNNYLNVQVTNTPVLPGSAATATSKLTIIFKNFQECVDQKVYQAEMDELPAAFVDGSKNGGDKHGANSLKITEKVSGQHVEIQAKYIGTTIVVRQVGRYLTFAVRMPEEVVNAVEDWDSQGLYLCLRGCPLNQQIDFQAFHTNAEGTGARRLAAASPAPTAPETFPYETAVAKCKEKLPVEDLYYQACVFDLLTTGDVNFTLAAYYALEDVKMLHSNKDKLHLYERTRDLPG
Description: (§1) Binding affinities of the anti-HJV antibodies to soluble human RGMa, Rat RGMa and human RGMc were measured by BIAcore analysis.

soluble rat RGMa [2] = biological target: T2, soluble rat RGMa (rat, UniProt D4A188 48-421); assay: SPR (BIAcore);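 also: binding kinetics and affinity of anti-HJV antibodies toward soluble rat RGMa, determined by SPR on a BIAcore instrument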
T2 construct: Soluble antigen in BIAcore
T2 sequence: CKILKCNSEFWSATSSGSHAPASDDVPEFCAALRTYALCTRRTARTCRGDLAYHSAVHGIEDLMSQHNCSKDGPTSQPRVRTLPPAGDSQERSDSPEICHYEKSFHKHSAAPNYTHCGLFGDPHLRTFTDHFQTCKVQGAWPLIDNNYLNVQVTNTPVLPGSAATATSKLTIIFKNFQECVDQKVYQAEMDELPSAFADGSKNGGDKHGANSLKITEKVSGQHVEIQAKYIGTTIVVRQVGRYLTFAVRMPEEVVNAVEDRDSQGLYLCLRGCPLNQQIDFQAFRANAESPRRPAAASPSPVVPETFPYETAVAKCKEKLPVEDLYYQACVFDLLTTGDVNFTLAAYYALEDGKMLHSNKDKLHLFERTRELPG
Description: as §1

[3] = biological target: T3, membrane-bound human RGMc (human, UniProt Q6ZVN8 36-400); assay: cell-based or functional assay
T3 sequence: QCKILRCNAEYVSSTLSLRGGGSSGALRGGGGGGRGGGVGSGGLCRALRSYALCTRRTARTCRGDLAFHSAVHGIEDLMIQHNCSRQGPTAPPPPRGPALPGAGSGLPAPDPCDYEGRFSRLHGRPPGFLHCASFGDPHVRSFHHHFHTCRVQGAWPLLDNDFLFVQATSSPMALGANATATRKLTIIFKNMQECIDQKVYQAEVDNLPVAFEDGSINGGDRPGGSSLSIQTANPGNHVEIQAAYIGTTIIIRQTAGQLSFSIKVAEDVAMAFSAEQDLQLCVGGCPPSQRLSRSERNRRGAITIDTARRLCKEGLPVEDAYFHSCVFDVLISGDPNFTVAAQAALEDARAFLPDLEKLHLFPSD

soluble human RGMc [4] = biological target: T4, soluble human RGMc (human, UniProt Q6ZVN8 36-400); assay: SPR (BIAcore), soluble hRGMc; summary table
T4 construct: also called huRGMc; soluble hRGMc
T4 sequence: T3 sequence

soluble human RGMa [5] = biological target: T1, soluble human RGMa; assay: SPR; method not named in Example 2
soluble human RGMc [6] = biological target: T4, soluble human RGMc; assay: SPR; method not named in Example 2
[7] = biological target: T3, membrane-bound human RGMc; assay: cell-based or functional assay; remark: listed apart in the source
[8] = biological target: T5, membrane-bound human RGMa (human, UniProt Q96B86 169-424); assay: cell-based or functional assay
T5 sequence (looked up): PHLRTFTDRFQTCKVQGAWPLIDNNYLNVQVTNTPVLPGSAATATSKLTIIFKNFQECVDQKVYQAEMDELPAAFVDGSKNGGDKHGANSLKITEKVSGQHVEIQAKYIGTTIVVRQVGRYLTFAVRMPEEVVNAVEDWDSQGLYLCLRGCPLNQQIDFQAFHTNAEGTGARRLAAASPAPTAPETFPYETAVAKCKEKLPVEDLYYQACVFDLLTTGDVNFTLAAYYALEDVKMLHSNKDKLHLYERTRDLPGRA

[9] = biological target: T3, membrane-bound human RGMc; assay: cell-based or functional assay; remark: listed apart in the source
soluble human RGMa [10] = biological target: T1, soluble human RGMa; assay: SPR (BIAcore), RGM antigen in solution
soluble human RGMc [11] = biological target: T4, soluble human RGMc; assay: SPR (BIAcore), RGM antigen in solution
soluble rat RGMa [12] = biological target: T2, soluble rat RGMa; assay: SPR (BIAcore), RGM antigen in solution
FcRn = biological target: T6, FcRn; assay: SPR (BIAcore) at pH 6.0
T6 construct: also called neonatal Fc receptor

soluble human RGMc [13] = biological target: T4, soluble human RGMc; assay: SPR (BIAcore);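 also: Anti-HJV antibodies, binding affinity to soluble human RGMc measured by BIAcore surface plasmon resonance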
Description: as §1

T6 sequence (P55899 24-297, chain 1 of 2): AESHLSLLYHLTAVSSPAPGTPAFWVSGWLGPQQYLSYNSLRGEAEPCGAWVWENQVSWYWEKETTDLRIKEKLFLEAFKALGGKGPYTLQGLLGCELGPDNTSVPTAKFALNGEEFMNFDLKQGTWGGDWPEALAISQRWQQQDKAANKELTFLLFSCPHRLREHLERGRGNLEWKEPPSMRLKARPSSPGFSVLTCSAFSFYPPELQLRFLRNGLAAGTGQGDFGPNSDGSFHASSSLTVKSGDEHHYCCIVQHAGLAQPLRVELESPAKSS
T6 sequence (P61769 21-119, chain 2 of 2, further chain): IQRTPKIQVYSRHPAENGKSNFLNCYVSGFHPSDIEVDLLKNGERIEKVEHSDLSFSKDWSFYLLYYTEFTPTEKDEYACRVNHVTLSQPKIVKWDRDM

B1: hHA-008 (antibody, human IgG1, kappa, L234A L235A)
heavy: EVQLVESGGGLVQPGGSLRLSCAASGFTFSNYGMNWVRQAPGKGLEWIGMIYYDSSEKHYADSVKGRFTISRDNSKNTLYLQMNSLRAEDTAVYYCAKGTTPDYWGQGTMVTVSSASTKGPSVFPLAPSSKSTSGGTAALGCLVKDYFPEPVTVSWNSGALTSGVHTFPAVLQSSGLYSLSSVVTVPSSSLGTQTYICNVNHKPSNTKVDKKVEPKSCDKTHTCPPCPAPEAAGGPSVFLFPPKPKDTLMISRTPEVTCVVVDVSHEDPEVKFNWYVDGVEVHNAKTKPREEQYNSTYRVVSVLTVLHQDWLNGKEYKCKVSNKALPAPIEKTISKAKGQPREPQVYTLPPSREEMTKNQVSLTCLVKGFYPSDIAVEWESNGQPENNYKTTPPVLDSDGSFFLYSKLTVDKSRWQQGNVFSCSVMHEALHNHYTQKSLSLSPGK
light: DVVLTQSPLSLPVTLGQPASISCRSSQSLEESDGYTFLHWFQQRPGQSPRLLIYEVSTRFSGVPDRFSGSGSGTDFTLKISRVEAEDVGVYYCFQATHDPLTFGQGTKLEIKRTVAAPSVFIFPPSDEQLKSGTASVVCLLNNFYPREAKVQWKVDNALQSGNSQESVTEQDSKDSTYSLSSTLTLSKADYEKHKVYACEVTHQGLSSPVTKSFNRGEC
notes: hIgG1 L234A, L235A, kappa; also called hHA-008 (hIgG1mut(LALA)/k)
- Kd (soluble human RGMa [1]): 0.031 nM
- koff (soluble human RGMa [1]): 2.7e-05 s⁻¹
- kon (soluble human RGMa [1]): 870000 M⁻¹ s⁻¹
- Kd (soluble rat RGMa [2]): < 0.0015 nM
- koff (soluble rat RGMa [2]): < 1e-06 s⁻¹
- kon (soluble rat RGMa [2]): 660000 M⁻¹ s⁻¹
- IC50 (nM), BMP reporter assay for RGMc (BRE-Luc, HEK293) [3]: 0.377 nM
- Kd (soluble human RGMc [4]): 0.105 nM
- koff (soluble human RGMc [4]): 0.00039 s⁻¹
- kon (soluble human RGMc [4]): 3.95e+06 M⁻¹ s⁻¹
- Kd (soluble human RGMa [5]): 0.078 nM
- koff (soluble human RGMa [5]): 4.2e-05 s⁻¹
- kon (soluble human RGMa [5]): 540000 M⁻¹ s⁻¹
- Kd (soluble human RGMc [6]): 0.11 nM
- koff (soluble human RGMc [6]): 0.00032 s⁻¹
- kon (soluble human RGMc [6]): 3e+06 M⁻¹ s⁻¹
- IC50 (read off the curve) [7]: ~0.4 nM
- IC50 (nM), BMP reporter assay for RGMa [8]: ~56.5 nM
- Potency on membrane hRGMc (RGMc/BMP reporter assay), IC50 [9]: 0.37 nM
- Kd (soluble human RGMa [10]): 0.074 nM
- koff (soluble human RGMa [10]): 3.6e-05 s⁻¹
- kon (soluble human RGMa [10]): 490000 M⁻¹ s⁻¹
- Kd (soluble human RGMc [11]): 0.12 nM
- koff (soluble human RGMc [11]): 0.00029 s⁻¹
- kon (soluble human RGMc [11]): 2.5e+06 M⁻¹ s⁻¹
- Kd (soluble rat RGMa [12]): 0.12 nM
- koff (soluble rat RGMa [12]): 3.6e-05 s⁻¹
- kon (soluble rat RGMa [12]): 310000 M⁻¹ s⁻¹
- Kd (FcRn): 2950 nM and 2960 nM
- Kd (soluble human RGMc [13]): 0.105 nM
- koff (soluble human RGMc [13]): 0.00039 s⁻¹
- kon (soluble human RGMc [13]): 3.95e+06 M⁻¹ s⁻¹
